Patent US20040018529A1, “Functional cloning of genes encoding proteins/enzymes involved in proteolytic cleavage” (priority 1999, published 2004)
Peptide text beside a SMILES is read from it. * marks the point of attachment. Cbz = O=C(OCc1ccccc1)*; CH2F = FC*

What was measured:
[1] = biological target: modified caspase-3 containing the β-secretase cleavage site of APP of the Swedish version (expressed from plasmid pCBC1) (human); assay: cell-based or functional assay
[2] = system: 293T cells; assay: Apoptosis assay by visual inspection of transfected cells; type: cell-based, Human
Method: Apoptosis assays 293T cells were seeded onto 60 mm dishes at a density of 1.5×10^6 cells and, the next day, were transiently transfected with 2.5 μg plasmid DNA mixed with 15 μl lipofectamin reagent (Life Technologies, Grand Island, N.Y.). Twenty-four or 48 h after transfection, cell death was analyzed by one of the following methods. For the first assay, apoptosis was quantitated by visual inspection of cells. Cells with a shrunken, rounded, detached or blebbed appearance were scored as apoptotic. Usually 3 or more random fields were photographed and counted, and each field contained at least several hundred cells. In the case of co-transfection with green fluorescent protein (GFP)-expressing plasmid, cells were examined with an inverted fluorescent microscope, and only green cells with apoptotic features were counted. The second apoptotic assay used was the detection of nucleosomal ladder in apoptotic cells using ApoAlert LM-PCR ladder assay kit from Clontech. The procedure recommended by Clontech was followed.

[3] = system: modified caspase-3; assay: Western blot analysis of processing of the modified caspase-3; type: cell-based, Human; details: 293T cells, co-transfection with pCBC1, compared with the control
Description: Western blot analysis Cells were collected in PBS and immediately lysed by the addition of an equal volume of 2×SDS loading buffer. After boiling and centrifugation, supernatants containing equal amount of proteins were loaded onto 14% SDS-PAGE gels. The proteins were resolved and transferred to a nylon membrane, and probed with antibodies against human caspase-3 (Santa Cruz Biotech, Santa Cruz, Calif.).

[4] = system: caspase-3; assay: Caspase-3 activity assay (ApoAlert CPP32/Caspase-3 Fluorescent Assay kit); type: cell-based, Human; details: 293T cells, co-transfection with pCBC1, compared with controls
Description: The protease activity of the caspase is also directly monitored in the cell extracts prepared as above. The ApoAlert® Caspase-3 assay kit, available commercially from Clontech, allows convenient fluorometric or colorimetric detection and assay of caspase-3. For example, the fluorescent kit detects the emission shift of 7-amino-4-trifluoromethyl coumarin (AFC). The AFC-substrate conjugate, DEVD-AFC, usually emits blue light (λmax=400 nm). However, upon proteolytic cleavage of the substrate by Caspase-3, free AFC fluoresces yellow-green (λmax=505 nm). Thus monitoring of emission at 505 nm in the cell extract, in relation to the uninduced control extract, allows determination of caspase activity. The activity can also be quantitated accurately and reproducibly using a standard curve established with free AFC. As described above, if there is endogenous expression of enzyme X in these cells, the caspase activity is generated in cells transfected only with pCTC1 (+) but not with pCTC1 (−).
Caspase-3 activity assay Caspase-3 activity was determined following the instructions of ApoAlert CPP32/Caspase-3 Fluorescent Assay kit (Clontech).

[5] = system: β-secretase; assay: β-NTF assay (ELISA of medium of transfected 293T cells); type: cell-based, Human; details: co-transfection with the APP expression plasmid, 48 h
Method: β-NTF assay 293T cells were seeded onto 60 mm dishes at a density of 1.5×10^6 cells and, the next day, were transiently transfected with 2.5 μg plasmid DNA mixed with 15 μl lipofectamin reagent (Life Technologies, Grand Island, N.Y.). In the case of transfection with pAPPsw plasmid, 0.5 μg pAPPsw was mixed with 2.0 μg carrier plasmid (unrelated plasmid). Twenty-four or 48 h after transfection, medium was collected and determined for […] by ELISA method as described [Liu, 2000]

Molecule | caspase-3 activity in transfected 293T cells (caspase-3 fluorescent assay), over mock-transfected cells, 24 and 48 h [1] [fold] | cell death caused by transfection of pCBC1 plasmids ([2]; 10 μM inhibitor added immediately after DNA transfection) | processed caspase-3 fragment (12 kDa) [3] | caspase-3 activity [4] | number of apoptotic cells / cell death caused by the modified caspase-3 ([2]; co-transfection with pCBC1, compared with controls) | generation of β-NTF [5]
endogenous β-secretase activity of human embryonic kidney 293T cells (enzyme) | 10 |  |  |  |  | 
COC(=O)C[C@H](NC(=O)[C@H](C)NC(=O)[C@@H](NC(=O)OCc1ccccc1)C(C)C)C(=O)CF [Z-VAD.fmk, reference compound] (Cbz-Val-Ala-Asp(OMe)-CH2F) |  | significantly prevented cell death |  |  |  | 
BACE2: BACE2 expression plasmid; BACE2 competes in vivo with β-secretase for β-site APP cleavage (protein, UniProt Q9Y5Z0 63-518, looked up) Beta-secretase 2: ALEPALASPAGAANFLAMVDNLQGDSGRGYYLEMLIGTPPQKLQILVDTGSSNFAVAGTPHSYIDTYFDTERSSTYRSKGFDVTVKYTQGSWTGFVGEDLVTIPKGFNTSFLVNIATIFESENFFLPGIKWNGILGLAYATLAKPSSSLETFFDSLVTQANIPNVFSMQMCGAGLPVAGSGTNGGSLVLGGIEPSLYKGDIWYTPIKEEWYYQIEILKLEIGGQSLNLDCREYNADKAIVDSGTTLLRLPQKVFDAVVEAVARASLIPEFSDGFWTGSQLACWTNSETPWSYFPKISIYLRDENSSRSFRITILPQLYIQPMMGAGLNYECYRFGISPSTNALVIGATVMEGFYVIFDRAQKRVGFAASPCAEIAGAAVSEISGPFSTEDVASNCVPAQSLSEPILWIVSYALMSVCGAILLVLIVLLLLPFRCQRRPRDPEVVNDESSLVRHRWK |  |  | significantly reduced | lower caspase-3 activity than the controls | significantly reduced the number of apoptotic cells | significantly inhibited the generation of β-NTF
BACE2(D110A): catalytically inactive mutant of BACE2, expressed from plasmid (protein) APELAPAPFTLPLRVAAATNRVVAPTPGPGTPAERHADGLALALEPALASPAGAANFLAMVDNLQGDSGRGYYLEMLIGTPPQKLQILVATGSSNFAVAGTPHSYIDTYFDTERSSTYRSKGFDVTVKYTQGSWTGFVGEDLVTIPKGFNTSFLVNIATIFESENFFLPGIKWNGILGLAYATLAKPSSSLETFFDSLVTQANIPNVFSMQMCGAGLPVAGSGTNGGSLVLGGIEPSLYKGDIWYTPIKEEWYYQIEILKLEIGGQSLNLDCREYNADKAIVDSGTTLLRLPQKVFDAVVEAVARASLIPEFSDGFWTGSQLACWTNSETPWSYFPKISIYLRDENSSRSFRITILPQLYIQPMMGAGLNYECYRFGISPSTNALVIGATVMEGFYVIFDRAQKRVGFAASPCAEIAGAAVSEISGPFSTEDVASNCVPAQSLSEPILWIVSYALMSVCGAILLVLIVLLLLPFRCQRRPRDPEVVNDESSLVRHRWK |  |  | significantly reduced | lower caspase-3 activity than the controls |  | significantly inhibited the generation of β-NTF
